T1: Human recombinant soluble TWEAK (Example 6) (human, UniProt O43508 99-249, limits assumed)
T1 sequence: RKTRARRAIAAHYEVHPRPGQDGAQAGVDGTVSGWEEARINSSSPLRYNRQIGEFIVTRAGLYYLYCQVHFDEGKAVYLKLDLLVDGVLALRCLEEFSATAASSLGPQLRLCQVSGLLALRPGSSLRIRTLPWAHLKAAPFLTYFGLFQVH

T2: Recombinant human TWEAK (R&D Systems; Cat. #1090-TW/CF) (human, UniProt O43508 97-249, limits assumed)
T2 sequence: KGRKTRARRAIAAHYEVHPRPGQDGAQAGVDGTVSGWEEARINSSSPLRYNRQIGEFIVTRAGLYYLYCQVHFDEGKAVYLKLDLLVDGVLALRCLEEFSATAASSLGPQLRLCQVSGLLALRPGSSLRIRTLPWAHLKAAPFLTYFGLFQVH

T3: Biotinylated human soluble TWEAK (amino acids 99-249 of SEQ ID NO: 68) (human, UniProt O43508 99-249, biotinylated)
T3 construct: also called Human TWEAK
T3 sequence: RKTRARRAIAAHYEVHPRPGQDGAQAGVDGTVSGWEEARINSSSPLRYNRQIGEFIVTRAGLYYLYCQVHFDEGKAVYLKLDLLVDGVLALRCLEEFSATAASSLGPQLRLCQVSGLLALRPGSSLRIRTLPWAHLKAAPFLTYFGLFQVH

T4: human Tweak-Fc (human, UniProt O43508 106-249, limits assumed)
T4 construct: not shown: Fc part
T4 sequence: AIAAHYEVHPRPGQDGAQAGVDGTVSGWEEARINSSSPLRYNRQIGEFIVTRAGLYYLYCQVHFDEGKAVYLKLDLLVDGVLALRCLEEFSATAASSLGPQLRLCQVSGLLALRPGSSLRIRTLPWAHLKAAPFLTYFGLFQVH

T5: human Flag-tagged soluble TWEAK (amino acids 106-249) (human, UniProt O43508 106-249)
T5 construct: The sentence gives amino acids 106-249 without naming the entry; also called Human TWEAK; not shown: Flag tag
T5 sequence: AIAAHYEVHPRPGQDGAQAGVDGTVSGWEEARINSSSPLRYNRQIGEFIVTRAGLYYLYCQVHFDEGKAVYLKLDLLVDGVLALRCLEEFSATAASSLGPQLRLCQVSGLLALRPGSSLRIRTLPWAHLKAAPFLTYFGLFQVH

T6: Mouse soluble TWEAK (untagged, Example 5) (mouse, UniProt O54907 105-249, limits assumed)
T6 construct: also called Murine TWEAK
T6 sequence: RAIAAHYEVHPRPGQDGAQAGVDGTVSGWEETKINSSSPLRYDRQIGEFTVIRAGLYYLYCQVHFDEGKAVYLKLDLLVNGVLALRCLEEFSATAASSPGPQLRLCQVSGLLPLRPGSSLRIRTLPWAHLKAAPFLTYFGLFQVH

T7: IL-17 F/F (human, UniProt Q96PD4 31-163)
T7 construct: read as the homodimer of IL17F
T7 sequence: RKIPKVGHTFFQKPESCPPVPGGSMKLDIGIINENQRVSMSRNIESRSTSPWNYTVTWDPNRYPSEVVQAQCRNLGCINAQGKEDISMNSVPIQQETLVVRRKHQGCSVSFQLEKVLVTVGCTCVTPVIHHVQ


Tests used:
[1] = biological target: T1, Human recombinant soluble TWEAK …; assay: cell-based or functional assay
[2] = biological target: T2, Recombinant human TWEAK (R&D Systems; …); assay: cell-based or functional assay
[3] = biological target: T3, Biotinylated human soluble TWEAK (amino …); assay: SPR (Biacore), biotinylated soluble TWEAK on streptavidin chip, 25 C
Procedure: A Biacore 2000 instrument was used with a Biacore streptavidin coated sensor mounted into the system. The system buffer HBS-ET (10 mM HEPES pH 7.4, 150 mM NaCl, 1 mM EDTA, 0.05% Tween® 20) was used at a flow rate of 100 μl/min. The sample buffer was the system buffer. Biotinylated human soluble TWEAK (amino acids 99-249 of SEQ ID NO: 68) and biotinylated murine soluble TWEAK (amino acids 81-225 of SEQ ID NO: 69) was immobilized on different flow cells on the SA sensor at 150 RU each. The flow cell FC1 was used as a blank reference cell. Each antibody was injected into the system as an analyte at 100 nM at 100 μl/min for 2 min association time. The dissociation of the immunecomplexes were monitored for 5 min. The sensor surface was washed with HBS-ET for 10 seconds and regenerated using 2×2 minutes injections with 10 mM glycine pH 2.25. This procedure was done at 25° C. The kinetically rate limiting step of the complex dissociation phase in the interval [240 s-300 s] was taken to calculate the dissociation rate kd [1/s] (Biacore Evaluation Software 4.0). According to the equation t1/2 diss=ln(2)/(60×kd), the half-life of the immunocomplexes in minutes was calculated.

[4] = biological target: T3, Biotinylated human soluble TWEAK (amino …); assay: SPR (Biacore), biotinylated soluble TWEAK on streptavidin chip, 37 C
human Tweak-Fc [5] = biological target: T4, human Tweak-Fc; assay: SPR (BIAcore T100), TWEAK ligand (Tweak-Fc) amine-coupled on C1 chip, antibody as analyte, 25 C
Procedure: (§1) Around 100 resonance units (RU) of TWEAK was immobilized on the C1 chip surface at pH 5.0 using an amine coupling kit supplied by the GE Healthcare. The sample and system buffer was PBS-T (10 mM phosphate buffered saline including 0.05% Tween20) pH 7.4. Association was measured by injection the bispecific antibody in various concentrations in solution for 3 min at a flow of 30 μl/min starting with 50 nM in 1:1 dilutions. The dissociation phase was monitored for up to 10 min and triggered by switching from the sample solution to running buffer. The surface was regenerated by three times 30 sec. washing with a 3M MgCl2 solution at a flow rate of 30 μl/min. Bulk refractive index differences were corrected by subtracting the response obtained from a blank-coupled surface. Blank injections are also subtracted (=double referencing). For calculation of apparent KD and other kinetic parameters the Langmuir 1:1 model was used.

human Tweak-Fc [6] = biological target: T4, human Tweak-Fc; assay: SPR (BIAcore T100), TWEAK ligand (Tweak-Fc) amine-coupled on C1 chip, antibody as analyte, 25 C, 1:1 model
Procedure: as §1

[7] = biological target: T5, human Flag-tagged soluble TWEAK (amino …); assay: receptor interaction ELISA: Flag-TWEAK preincubated with antibody, then on coated human Fn14:Fc (competitor m21)
Procedure: 96-well Maxisorp® plates (Nunc) were coated with 100 μl 1 μg/ml human Fn14:Fc (extracellular domain of human Fn14 (amino acids 1-75 of SEQ ID NO: 98) fused to Fc portion of human IgG1) in PBS per well for 1.5 h at room temperature and blocked with a solution of 5% FBS in PBS for 30 minutes at room temperature under shaking. […] After washing the Fn14-coated plate once with wash buffer (0.1% Tween® 20 in PBS), 100 μl of the TWEAK-antibody solution were transferred to each well and the plate was incubated for 1 h at room temperature, followed by four washes with wash buffer. Wells were filled with 100 μl of anti-FLAG-HRP detection antibody, diluted 1:5000 in blocking buffer, and incubated for 1 h at room temperature. After four more wash steps, the signal was developed by addition of 100 μl 3,3,5,5-Tetramethylbenzidine (TMB) solution for approximately ten minutes. The reaction was stopped by adding 100 μl of 1 N HCl, and absorbance measured at 450 nm (reference wavelength 620 nm).

human Tweak-Fc [8] = biological target: T4, human Tweak-Fc; assay: SPR (BIAcore T100), TWEAK ligand (Tweak-Fc) amine-coupled on C1 chip, antibody as analyte, 25 C, apparent KD, 1:1 model
[9] = biological target: T6, Mouse soluble TWEAK (untagged, Example …); assay: receptor interaction ELISA: mouse soluble TWEAK preincubated with antibody, then on coated mouse Fn14:Fc (competitor m22)
Procedure: Briefly, Maxisorp plates were coated with mouse Fn14:Fc (extracellular domain of mouse Fn14 (amino acids 1-75 of SEQ ID NO: 98) fused to Fc portion of human IgG1) as described above for human Fn14:Fc, followed by blocking and washing. […] After 1 h of incubation at room temperature and four washes, biotinylated anti-mouse TWEAK antibody at 125 ng/ml in blocking buffer was added for 1 h at room temperature, followed by another four wash steps. The TWEAK antibody was detected by incubation with streptavidin-HRP, diluted 1:5000 in blocking buffer, for 30 minutes at room temperature. Signal was developed and absorbance measured as described above.

[10] = biological target: recombinant human IL-17 (Peprotech #200-17) (human, UniProt Q16552 20-155); assay: cell-based or functional assay
Chain of recombinant human IL-17 (Peprotech #200-17) (Q16552 20-155 limits assumed): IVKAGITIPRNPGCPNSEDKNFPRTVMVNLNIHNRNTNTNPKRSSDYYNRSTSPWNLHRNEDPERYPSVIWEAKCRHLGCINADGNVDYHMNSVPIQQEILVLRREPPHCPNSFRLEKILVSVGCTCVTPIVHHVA

IL-17 F/F = biological target: T7, IL-17 F/F; assay: SPR (BIAcore T100), antibody captured by anti-human F(ab')2, IL17 as analyte, 25 C
Procedure: (§2) Around 12000 resonance units (RU) of the capturing system (10 μg/ml goat anti human F(ab′)2; Order Code: 28958325; GE Healthcare Bio-Sciences AB, Schweden) were coupled on a CMS chip at pH 5.0 by using an amine coupling kit supplied by the GE Healthcare. The sample and system buffer was PBS-T (10 mM phosphate buffered saline including 0.05% Tween20) pH 7.4. The bispecific antibody was captured by injecting a 50 nM solution for 1 min at a flow of 10 μl/min. Association was measured by injection human IL17 in various concentrations in solution for 3 min at a flow of 30 μl/min starting with 50 nM in 1:1 dilutions. The dissociation phase was monitored for up to 5 min and triggered by switching from the sample solution to running buffer. The surface was regenerated by two times 60 sec. washing with a glycin pH 2.1 solution at a flow rate of 30 μl/min. Bulk refractive index differences were corrected by subtracting the response obtained from a goat anti human F(ab′)2 surface. Blank injections are also subtracted (=double referencing). For calculation of apparent KD and other kinetic parameters the Langmuir 1:1 model was used.

IL-17 A/F = biological target: T8, IL-17 A/F (human, UniProt Q16552 24-155; Q96PD4 31-163); assay: SPR (BIAcore T100), antibody captured by anti-human F(ab')2, IL17 as analyte, 25 C, 1:1 model
T8 construct: read as the heterodimer of IL17A and IL17F
T8 sequence (Q16552 24-155 limits assumed, one chain of several): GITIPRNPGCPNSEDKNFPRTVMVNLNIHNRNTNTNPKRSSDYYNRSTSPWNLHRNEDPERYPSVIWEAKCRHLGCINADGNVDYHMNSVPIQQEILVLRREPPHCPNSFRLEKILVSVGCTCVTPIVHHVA
Procedure: as §2

human IL17A/A = human IL17A/A (human, UniProt Q16552 24-155, limits assumed); assay: SPR (BIAcore T100), antibody captured by anti-human F(ab')2, IL17 as analyte, 25 C, apparent KD, 1:1 model
Chain of human IL17A/A (Q16552 24-155 limits assumed): as the sequence (Q16552 24-155 limits assumed, one chain of several) above
Procedure: as §2

human Tweak-Fc [11] = biological target: T4, human Tweak-Fc; assay: SPR (BIAcore T100), TWEAK ligand (Tweak-Fc) amine-coupled on C1 chip, bispecific antibody as analyte, 25 C
Description: (§3) The BIAcore® system is well established for the study of molecule interactions. SPR-technology is based on the measurement of the refractive index close to the surface of a gold coated biosensor chip. Changes in the refractive index indicate mass changes on the surface caused by the interaction of immobilized ligand with analyte injected in solution. The mass increases if molecules bind immobilized ligands on the surface, and vice versa, the mass decreases in case of dissociation of the analyte from the immobilized ligand (reflecting complex dissociation). SPR allows a continuous real-time monitoring of ligand/analyte binding and thus the determination of the association rate constant (ka), the dissociation rate constant (kd), and of the equilibrium constant (KD).
(§4) Around 100 resonance units (RU) of TWEAK was immobilized on the C1 chip surface at pH 5.0 using an amine coupling kit supplied by the GE Healthcare. The sample and system buffer was PBS-T (10 mM phosphate buffered saline including 0.05% Tween20) pH 7.4. Association was measured by injection the bispecific antibody in various concentrations in solution for 3 min at a flow of 30 μl/min starting with 50 nM in 1:1 dilutions. The dissociation phase was monitored for up to 10 min and triggered by switching from the sample solution to running buffer. […]

human Tweak-Fc [12] = biological target: T4, human Tweak-Fc; assay: SPR (BIAcore T100), TWEAK ligand (Tweak-Fc) amine-coupled on C1 chip, bispecific antibody as analyte, 25 C, 1:1 model
Description: as §3, §1

human Tweak-Fc [13] = biological target: T4, human Tweak-Fc; assay: SPR (BIAcore T100), TWEAK ligand (Tweak-Fc) amine-coupled on C1 chip, bispecific antibody as analyte, 25 C, apparent KD, 1:1 model
Description: as §3, §4

Binder | Inhibition of IL8-Secretion [ng/ml] (A375 cells) [1] | IC50 (nM) per valency, Tweak induced HFLS proliferation (CellTiter Glo) [2] | Biacore t/2 diss. [min] 25° C. human [3] | Biacore t/2 diss. [min] 37° C. human [4] | T½ (human Tweak-Fc [5]) | koff (human Tweak-Fc [6]) | kon (human Tweak-Fc [6]) | IC50 [7] | Kd (human Tweak-Fc [8]) | IC50 [9] | IL-6 IC50 [nM] per valency (IL-17 induced cytokine production, HFLS-RA) [10] | IL-8 IC50 [nM] per valency (IL-17 induced cytokine production, HFLS-RA) [10] | binding result (IL-17 F/F) | Kd (IL-17 A/F) | Kd (human IL17A/A) | T½ (human Tweak-Fc [11]) | koff (human Tweak-Fc [12]) | kon (human Tweak-Fc [12]) | Kd (human Tweak-Fc [13])
Humanized <TWEAK> 305- antibody 27 (antibody, V domains shown) VH: QVQLVQSGAEVKKPGSSVKVSCKASGFDFSTYYMSWVRQAPGQGLEWMGTVYVRQGTTYYASWLNGRVTITADESTSTAYMELSSLRSEDTAVYYCARGGYNYDDAFVIWGQGTLVTVSS VL: DIQMTQSPSSVSASVGDRVTITCQASQNIYSNLAWYQQKPGKAPKLLIYTASYLASGVPSRFSGSGSGTDYTLTISSLQPEDFATYYCQTAYYNSRPDTVAFGGGTKVEIK | 197 ng/mL | 0.152 nM | 110 min | 147 min | 3.37 h | 5.71e-05 s⁻¹ | 2.27e+06 M⁻¹ s⁻¹ | 2.3 ng/mL | 25.2 pM | 8.2 ng/mL |  |  |  |  |  |  |  |  | 
Bispecific <Tweak-IL-17> #4 antibody (bispecific antibody, human IgG1, kappa, Bivalent one-armed scFab format (WO 2011/117330), IgG1 knobs-into-holes) heavy 1: not shown heavy 2: not shown light: DIVMTQSPLSLPVTPGEPASISCRSSQSLVHSNGDTYFHWYLQKPGQSPQLLIYKVSNRFSGVPDRFSGSGSGTDFTLKISRVEAEDVGVYYCSQTTHAPFTFGQGTKLEIKRTVAAPSVFIFPPSDEQLKSGTASVVCLLNNFYPREAKVQWKVDNALQSGNSQESVTEQDSKDSTYSLSSTLTLSKADYEKHKVYACEVTHQGLSSPVTKSFNRGEC |  | 0.157 nM |  |  |  |  |  |  |  |  | 1.72 nM | 1.1 nM | no binding (tested: IL17 injected starting with 50 nM) | 270 pM | 150 pM | 3.55 h | 5.42e-05 s⁻¹ | 426000 M⁻¹ s⁻¹ | 127 pM

Reference: patent US20150132307A1 (Hoffmann-La Roche, published 2015)
